Measured values as given in the supplement of paper PMC10567573.

Assay: protein stability index of a GFP-peptide fusion (GPS, HEK-293T) (PSI 1-6); higher = more stable
Conditions: c terminus: native
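Further: lentivirally expressed fusion library, cells FACS-sorted into six equal-sized GFP/DsRed ratio bins, PSI computed from sequencing read fractions per bin weighted by bin number.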

**Q.** With EQRNSRWNTVLRAVKAKTHHLEPH [TRPA1 addH] as the protein, how does the protein stability index (parent: NP_015628.1) read?
**A.** Its protein stability index is 5.05.

**Q.** With EQRNSRWNTVLRAVKAKTHHLEPS [TRPA1 addS] as the protein, how does the protein stability index (parent: NP_015628.1) read?
**A.** Its protein stability index is 4.6.

**Q.** For CQPISFSGFGAEDDDLGGLGLGPH [POLD2 addH], which protein stability index (parent: NP_006221.1) is on record?
**A.** The protein stability index was 2.24.

**Q.** With LPALFTDLYSQEITAEEAREALPS [SNF8 addS] as the protein, how does the protein stability index (parent: NP_009172.2) read?
**A.** The protein stability index was 4.4.

**Q.** Which protein stability index (parent: NP_002788.1) does the source give for DGWIRVSSDNVADLHEKYSGSTPS [PSMB5 addS] here?
**A.** The protein stability index was 3.98.

**Q.** With HSLRAVSTDPPHHDHHDEFCLMPS [BEX2 addS] as the protein, how does the protein stability index (parent: NP_116010.1) read?
**A.** Its protein stability index is 3.84.

**Q.** Which protein stability index (parent: NP_002788.1) does the source give for DGWIRVSSDNVADLHEKYSGSTPH [PSMB5 addH] here?
**A.** The protein stability index was 3.83.

**Q.** With LPALFTDLYSQEITAEEAREALPH [SNF8 addH] as the protein, how does the protein stability index (parent: NP_009172.2) read?
**A.** The protein stability index was 4.88.

**Q.** Which protein stability index (parent: NP_006221.1) does the source give for CQPISFSGFGAEDDDLGGLGLGPS [POLD2 addS] here?
**A.** The protein stability index was 2.6.
